# Results published in patent US20250361274A1, “PEPTIDE AND PEPTIDE-CONTAINING AGENT” (PEPTIDREAM INC., priority 2022, published 2025).
# Numbered stars: 1 amine (or outer) side, 2 acyl side, 3 side chain; on linkers, the order of the positions; unused ones are H or OH. Bridge positions count the residues as written; N and C are the ends. Square brackets hold non-standard residues; d marks the D form. Ends that are not written are not given here. Peptide text beside a SMILES is read from it. * marks the point of attachment. KCOpipzaa = N6-(4-(carboxymethyl)piperazine-1-carbonyl)-L-lysine, O=C(NCCCC[C@H](N[*:1])C(=O)[*:2])N1CCN(CC(=O)[*:3])CC1; X8 = 4‑(carboxymethyl)piperazine‑1‑carbonyl, O=C(O)CN1CCN(C(=O)*)CC1; Phe(4-(4-F-Ph)) = N[C@@H](Cc1ccc(-c2ccc(F)cc2)cc1)C(=O)O; 3Pal(6-Ph) = N[C@@H](Cc1ccc(-c2ccccc2)nc1)C(=O)O; Phe(4-COOH) = N[C@@H](Cc1ccc(C(=O)O)cc1)C(=O)O; NMePhe(4-Me) = CN[C@@H](Cc1ccc(C)cc1)C(=O)O; Pro(trans-4-F) = O=C(O)[C@@H]1C[C@@H](F)CN1; Bip = N[C@@H](Cc1ccc(-c2ccccc2)cc1)C(=O)O; 3Pal(6-NH2) = Nc1ccc(C[C@H](N)C(=O)O)cn1; Nle(6-COOH) = N[C@@H](CCCCC(=O)O)C(=O)O; X1 = N=C(CN)NCCC[C@H](N[*:1])C(=O)[*:2]; Phe(4-F) = N[C@@H](Cc1ccc(F)cc1)C(=O)O; Pro(4,4-F2) = O=C(O)[C@@H]1CC(F)(F)CN1; cisHyp = O=C(O)[C@@H]1C[C@H](O)CN1; Hyp = O=C(O)[C@@H]1C[C@@H](O)CN1; NMeF = CN[C@@H](Cc1ccccc1)C(=O)O; 4Pal = N[C@@H](Cc1ccncc1)C(=O)O; Aad = N[C@@H](CCCC(=O)O)C(=O)O; Cha = N[C@@H](CC1CCCCC1)C(=O)O; βAla = NCCC(=O)O
# Key:
# [1] = molecular target: T1, BMP7 (Homo sapiens, UniProt P18075); experiment: BMP7 signal transduction inhibitory activity: SMAD1 phosphorylation by BMP7 stimulus, A549 cells; format: cell-based; conditions: for aLISA BMP7: A549 cells
# T1 sequence (P18075 293-431): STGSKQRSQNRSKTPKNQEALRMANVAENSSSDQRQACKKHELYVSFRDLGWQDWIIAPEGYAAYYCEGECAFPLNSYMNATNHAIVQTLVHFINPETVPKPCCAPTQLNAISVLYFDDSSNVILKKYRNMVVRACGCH
# In short: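 A549 cells were stimulated with 10 nM BMP7, and the read-out was SMAD1 phosphorylation. Peptides were tested at three concentrations spanning 1 to 1,000 nM, with sets depending on the peptide series. Some peptides were run in eight-point 1/3 dilutions starting from 100 nM or 1,000 nM, with recombinant human Noggin as positive control at matching concentrations.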
# [2] = molecular target: T2, BMP4 (Homo sapiens, UniProt P12644); experiment: BMP4 signal transduction inhibitory activity: SMAD1 phosphorylation by BMP4 stimulus, AlphaLISA SureFire, A549 cells; format: cell-based; conditions: for aLISA BMP4: A549 cells
# T2 sequence (P12644 293-408): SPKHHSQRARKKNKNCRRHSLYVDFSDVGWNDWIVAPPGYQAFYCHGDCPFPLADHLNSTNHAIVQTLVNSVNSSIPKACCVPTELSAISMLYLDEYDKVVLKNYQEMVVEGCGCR
# [3] = BMP7 10 nM stimulus, peptide conc. in assay 1, 10, 100 nM
# [4] = BMP4 0.2 nM stimulus, peptide conc. in assay 0.2, 2, 20 nM
# [5] = SMAD1 phosphorylation, BMP7 10 nM, peptide conc. in assay 1, 10, 100 nM
# [6] = SMAD1 phosphorylation, BMP4 0.2 nM, peptide conc. in assay 0.2, 2, 20 nM
# [7] = inhibition of SMAD1 phosphorylation by BMP7 stimulus, AlphaLISA, class by peptide concentration zone
# [8] = inhibition of SMAD1 phosphorylation by BMP4 stimulus, AlphaLISA, class by peptide concentration zone
# [9] = inhibition of SMAD1 phosphorylation by BMP7 stimulus, peptides of Synthesis 2, classes A-D, ND
# [10] = inhibition of SMAD1 phosphorylation by BMP4 stimulus, peptides of Synthesis 2, classes A-C, ND
compound,measurement,setting,value
408 (FG[NMeF]G[Bip]GDE[Cha][Aad][NMeF]L[Phe(4-COOH)]C-NH2) [compound 408],aLISA BMP7 (10 nM) % inh,[1]; [3],C (showed less than 30% of inhibitory activity in a zone to which the peptide was added in an amount of 1 nM and showed 30% or more of inhibitory activity in 10 nM-addition zone)
same,aLISA BMP4 (0.2 nM) % inh,[2]; [4],ND (the inhibitory activity was less than 30% at the maximum concentration evaluated)
"342 (FG[NMeF]G[Bip]GDD[Cha]T[NMeF]LHCG-NH2; not fully specified (N-terminus, bridges)) [compound 342]",aLISA BMP7 (10 nM) % inh,[1]; [5],D (showed less than 30% of inhibitory activity in 10 nM-addition zone and showed 30% or more of inhibitory activity in 100 nM-addition zone)
same,aLISA BMP4 (0.2 nM) % inh,[2]; [6],ND (the inhibitory activity was less than 30% at the maximum concentration evaluated)
377 (FG[NMeF]G[4Pal]GDD[Cha]A[NMeF]LHCG-NH2; not fully specified) [compound 377],aLISA BMP7 (10 nM) % inh,"[1]; BMP7 10 nM stimulus, peptide conc. in assay 10, 30, 90 nM",F (showed less than 30% of inhibitory activity in 10 nM-addition zone and showed 30% or more of inhibitory activity in 30 nM-addition zone)
same,aLISA BMP4 (0.2 nM) % inh,"[2]; BMP4 0.2 nM stimulus, peptide conc. in assay 2, 20, 200 nM",ND (the inhibitory activity was less than 30% at the maximum concentration evaluated)
416 ([Phe(4-F)]G[NMeF]G[3Pal(6-Ph)]GDE[Cha][Aad][NMePhe(4-Me)]L[cisHyp]C-NH2; not fully specified) [compound 416],aLISA BMP7 (10 nM) % inh,[1]; [3],D (showed less than 30% of inhibitory activity in 10 nM-addition zone and showed 30% or more of inhibitory activity in 100 nM-addition zone)
same,aLISA BMP4 (0.2 nM) % inh,[2]; [4],ND (the inhibitory activity was less than 30% at the maximum concentration evaluated)
133 ({CH2CO}-ERVYVD[3Pal(6-NH2)][Bip]PYV[Bip]Y[Phe(4-COOH)][Phe(4-COOH)]SCG-NH2; thioether N-17; not fully specified) [compound 133],aLISA BMP7,"[1]; inhibition of SMAD1 phosphorylation by BMP7 stimulus, peptides of Synthesis 1, classes E, F, ND",E (showed 50% or more of inhibitory activity in a zone to which the peptide was added in an amount of 10 nM)
same,aLISA BMP4,"[2]; inhibition of SMAD1 phosphorylation by BMP4 stimulus, peptides of Synthesis 1, classes D-F, ND",E (showed less than 50% of inhibitory activity in 0.2 nM-addition zone and showed 50% or more of inhibitory activity in 2 nM-addition zone)
"332 (FG[NMeF]G[Bip]ADD[Cha]A[NMeF]LHCG-NH2; not fully specified (N-terminus, bridges)) [compound 332]",aLISA BMP7 (10 nM) % inh,[1]; [5],D (showed less than 30% of inhibitory activity in 10 nM-addition zone and showed 30% or more of inhibitory activity in 100 nM-addition zone)
same,aLISA BMP4 (0.2 nM) % inh,[2]; [6],ND (the inhibitory activity was less than 30% at the maximum concentration evaluated)
400 (FG[NMeF]G[Bip]GDE[Cha]Q[NMeF]L[cisHyp]CG-NH2) [compound 400],aLISA BMP7 (10 nM) % inh,[1]; [3],C (showed less than 30% of inhibitory activity in a zone to which the peptide was added in an amount of 1 nM and showed 30% or more of inhibitory activity in 10 nM-addition zone)
same,aLISA BMP4 (0.2 nM) % inh,[2]; [4],ND (the inhibitory activity was less than 30% at the maximum concentration evaluated)
43 (Ac-AKVYVD[4Pal][Bip]PYP[Bip]Y[Phe(4-COOH)][Phe(4-COOH)]SCG-NH2; thioether (positions not given here); not fully specified (bridges)) [compound 43],aLISA BMP7,[1]; [7],ND (the inhibitory activity was less than 30% at the maximum concentration evaluated)
same,aLISA BMP4,[2]; [8],C (showed an inhibitory activity of less than 50% in 0.2 nM-addition zone and showed an inhibitory activity of 50% or more in 2 nM-addition zone were defined as B or C)
59 (Ac-AK(X8)VYVDR[Bip]PYP[Bip][Phe(4-F)][Phe(4-COOH)][Phe(4-COOH)]SCG-NH2; thioether (positions not given here); not fully specified (bridges)) [compound 59],aLISA BMP7,[1]; [7],C (showed less than 50% of inhibitory activity in 10 nM-addition zone and showed 50% or more of inhibitory activity in 100 nM-addition zone)
same,aLISA BMP4,[2]; [8],A (showed an inhibitory activity of 50% or more in a zone to which the peptide was added to in an amount of 0.2 nM)
"299 (ERV[Phe(4-COOH)]V[KCOpipzaa]R[3Pal(6-Ph)][KCOpipzaa]Y[Hyp][Phe(4-(4-F-Ph))]Y[Phe(4-COOH)][Phe(4-COOH)]SCG-NH2; not fully specified (N-terminus, bridges); also: cyclic peptide, ring closure not given here) [compound 299]",aLIZA BMP7 (10 nM) % inh,"[1]; BMP7 10 nM stimulus, peptide conc. in assay 10, 100, 1000 nM, class symbols",ND (the inhibitory activity was less than 30% at the maximum concentration evaluated)
same,aLIZA BMP4 (0.2 nM) % inh,"[2]; BMP4 0.2 nM stimulus, peptide conc. in assay 0.02, 0.2, 2 nM, class symbols",C (showed less than 30% of inhibitory activity in 0.2 nM-addition zone and showed 30% or more of inhibitory activity in 2 nM-addition zone)
33 ({CH2CO}-ARVYVDR[3Pal(6-Ph)]PYP[3Pal(6-Ph)][4Pal][Phe(4-COOH)][Phe(4-COOH)]SCG-NH2; thioether N-17; not fully specified) [compound 33],aLISA BMP7,"[1]; 10 nM BMP7, peptides of Synthesis 2, peptide 1, 10, 100 nM",ND (the inhibitory activity was less than 30% at the maximum concentration evaluated)
same,aLISA BMP4,"[2]; SMAD1 phosphorylation, peptides of Synthesis 2, peptide 0.02, 0.2, 2 nM",C (showed an inhibitory activity of less than 50% in 0.2 nM-addition zone and showed an inhibitory activity of 50% or more in 2 nM-addition zone were defined as B or C)
"356 (FG[NMeF]G[Bip]GDD[Cha]A[NMeF]L[cisHyp]CG-NH2; not fully specified (N-terminus, bridges)) [compound 356]",aLISA BMP7 (10 nM) % inh,[1]; [5],C (showed less than 30% of inhibitory activity in a zone to which the peptide was added in an amount of 1 nM and showed 30% or more of inhibitory activity in 10 nM-addition zone)
same,aLISA BMP4 (0.2 nM) % inh,[2]; [6],A (showed less than 30% of inhibitory activity in 2 nM-peptide-addition zone and showed 30% or more of inhibitory activity in 20 nM-addition zone)
110 ({CH2CO}-ERVYVDR[Bip]PY[Pro(trans-4-F)][Bip]Y[Phe(4-COOH)][Phe(4-COOH)]SC[βAla][dE]-OH; thioether N-17; not fully specified) [compound 110],aLISA BMP7,[1]; [9],B (showed less than 50% of inhibitory activity in 1 nM-addition zone and showed 50% or more of inhibitory activity in 10 nM-addition zone)
same,aLISA BMP4,[2]; [10],A (showed an inhibitory activity of 50% or more in a zone to which the peptide was added to in an amount of 0.2 nM)
"111 ({CH2CO}-ERVYVDR[Bip]PY[Pro(4,4-F2)][Bip]Y[Phe(4-COOH)][Phe(4-COOH)]SC[βAla][dE]-OH; thioether N-17; not fully specified) [compound 111]",aLISA BMP7,[1]; [9],C (showed less than 50% of inhibitory activity in 10 nM-addition zone and showed 50% or more of inhibitory activity in 100 nM-addition zone)
same,aLISA BMP4,[2]; [10],A (showed an inhibitory activity of 50% or more in a zone to which the peptide was added to in an amount of 0.2 nM)
CC(C)C[C@@H]1NC(=O)[C@H](Cc2ccc(O)cc2)NC(=O)[C@H](C(C)C)NC(=O)[C@H](CCCNC(=N)N)NC(=O)[C@H](CCCCC(=O)O)NC(=O)CSC[C@@H](C(=O)NCC(N)=O)NC(=O)[C@H](CO)NC(=O)[C@H](Cc2ccc(C(=O)O)cc2)NC(=O)[C@H](Cc2ccc(C(=O)O)cc2)NC(=O)[C@H](Cc2ccc(O)cc2)NC(=O)[C@H](Cc2ccc(-c3ccccc3)cc2)NC(=O)[C@H](C(C)C)NC(=O)[C@H](Cc2ccc(O)cc2)NC(=O)[C@H](CO)NC(=O)[C@H](Cc2ccc(-c3ccccc3)nc2)NC(=O)[C@H](CCCNC(=N)CN)NC(=O)[C@H](CC(=O)O)NC1=O [SEQ ID No. 87] ({CH2CO}-[Nle(6-COOH)]RVYLD[X1][3Pal(6-Ph)]SYV[Bip]Y[Phe(4-COOH)][Phe(4-COOH)]SCG-NH2; thioether N-17),BMP7 inhibitory activity (in words),[1],does not inhibit signal transduction of BMP7
same,aLISA BMP7,[1]; [9],ND (the inhibitory activity was less than 30% at the maximum concentration evaluated)
same,BMP4 inhibitory activity (in words),[2],same level of the BMP4 inhibitory activity as Noggin
same,aLISA BMP4,[2]; [10],A (showed an inhibitory activity of 50% or more in a zone to which the peptide was added to in an amount of 0.2 nM)
121 ({CH2CO}-ERV[Phe(4-COOH)]VDR[Bip]PYP[Bip]Y[Phe(4-COOH)][Phe(4-COOH)]SC[βAla][dE]-OH; thioether N-17; not fully specified) [compound 121],aLISA BMP7,[1]; [9],B (showed less than 50% of inhibitory activity in 1 nM-addition zone and showed 50% or more of inhibitory activity in 10 nM-addition zone)
same,aLISA BMP4,[2]; [10],A (showed an inhibitory activity of 50% or more in a zone to which the peptide was added to in an amount of 0.2 nM)
